# Reference: patent publication US20210246218A1 (LYVGEN BIOPHARMA SUZHOU, published 2021)
# “And” between values parts separate entries of the source, which are not always exact repeats. Equal entries are not always repeated.
# T1: Ly052
# T1 chain: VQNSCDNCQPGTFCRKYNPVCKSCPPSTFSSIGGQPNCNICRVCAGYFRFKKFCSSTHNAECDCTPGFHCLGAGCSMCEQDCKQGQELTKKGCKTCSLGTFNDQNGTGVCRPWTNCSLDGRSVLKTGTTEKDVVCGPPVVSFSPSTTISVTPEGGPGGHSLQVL
# T2: Ly050
# T2 chain: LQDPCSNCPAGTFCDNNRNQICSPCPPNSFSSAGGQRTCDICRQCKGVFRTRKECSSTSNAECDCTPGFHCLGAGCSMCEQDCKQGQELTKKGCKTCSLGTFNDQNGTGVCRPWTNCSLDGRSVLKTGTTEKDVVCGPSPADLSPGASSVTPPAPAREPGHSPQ
# How the values were obtained:
# [1] = biological target: T1, Ly052; assay: ELISA, clone 3712-IgG1v coated, CD137 protein titrated (EC50 is a concentration of the CD137 protein); curve rises only above about 1000 ng/mL to about 0.61 at 100000 ng/mL, no plateau seen
# Protocol: The plate was decanted and washed once; assay diluent was added 200 μL/well. After one-hour incubation at room temperature, the plate was washed with PBST one time. CD137 receptor human/mouse chimeras were diluted in assay diluent to 100 or 10 μg/mL, and then a 4-fold serial dilution in assay diluent for 11 points to final concentrations of 100000, 25000, 6250, 1562.5, 390.63, 97.66, 24.41, 6.10, 1.53, 0.38 and 0.095 ng/mL or 10000, 2500, 625, 156.25, 39.06, 9.77, 2.44, 0.61, 0.15, 0.038 and 0.0095 ng/mL. The diluted CD137 receptor was added to the assay plate, 50 μL/well, in duplicate. The plate was incubated one hour at room temperature and then washed three times with PBST. Goat anti-human IgG-H+L HRP conjugated at 1:100,000 20 dilution was added to the plate at 100 μL/well. The plate was then incubated one hour at room temperature followed by washing with PBST four times. The TMB substrate solution was added at 100 μL/well. The color was allowed to develop for 15 minutes, and was stopped with 100 μL/well 2N H2SO4. Absorbance at 450 nm and 620 nm was determined by a Tecan F200 Pro reader.
# [2] = biological target: T3, cynomolgus monkey CD137 on cells (cynomolgus monkey, UniProt A9YYE7 24-254); assay: flow cytometry on CHO-cynomolgus monkey CD137 cells, PE anti-human IgG-Fc
# T3 construct: whole, on cells; also called CHO-cynomolgus monkey CD137
# Protocol: (§1) CHO cells over-expressing human or cynomolgus monkey CD137 and CHO parental cells were harvested by centrifugation at 1000 g for 3 minutes. The cells were resuspended in ice cold assay buffer at 2*10\hat{ }6/mL and transferred to 96-well V-bottom plate with 100 μL/well. […] The plate was mixed and incubated in the dark for 2 hours at 4° C. The cells were washed 3 times by centrifugation at 1000 g for 3 min and resuspended in ice cold assay buffer containing goat F(ab′)₂ anti-human IgG-Fc (PE), 100 μL/well. The plate was incubated in the dark for another 1 hour at 4° C. The cells were washed 2 times by centrifugation at 1000 g for 3 min and resuspended in ice cold assay buffer containing 2% PFA. The cells were then subjected to the flow cytometer immediately.
# (§2) Mean fluorescence intensity (MFI) was calculated from the total cell population in the FCM experiments. Graphpad 7.0, “[Agonist] vs. response—Variable slope (four parameters)” was used to plot the binding MFI in dose response and to calculate FCM binding EC₅₀ values.
# [3] = biological target: T4, recombinant human CD137 receptor protein (human, UniProt Q07011 24-186); assay: ELISA, huCD137 coated, clone 3712 titrated; full sigmoid, plateau about 1.5
# T4 construct: Coated on ELISA plates; also called recombinant human CD137 protein
# Protocol: (§3) For the data shown in FIGS. 16C-D, chimeric CD137 receptor protein samples were diluted in DPBS to 5 μg/mL and then coated onto an ELISA plate (Corning, Catalog number: 9018, high binding) at 50 μL (0.25 μg) per well, and incubated at 4° C. overnight. The plate was decanted and washed once; assay diluent was added at 200 μL/well. After a 1-hour incubation at room temperature, the plate was washed with PBST one time. […] The plate was incubated 1 hour at room temperature and then washed three times with PBST. Goat anti-human IgG-H+L HRP-conjugated at 1:100,000 dilution or goat anti-mouse IgG (H+L) secondary antibody, HRP, 10 at 1:50,000 dilution was added to the plate at 100 μL/well. The plate was incubated 1 hour at room temperature followed by washing with PBST four times. The TMB substrate solution was added 100 μL/well. The color was permitted to develop for 15 minutes and then 100 μL/well 2N H2SO4 was added to terminate the reaction. Absorbance at 450 nm and 620 nm was determined by a Tecan F200 Pro reader.
# [4] = biological target: T4, recombinant human CD137 receptor protein; assay: ELISA, recombinant human CD137 protein coated, antibody titrated
# Protocol: The human or cynomolgus monkey CD137 receptor protein was diluted in DPBS to 1 μg/mL, and then coated onto an ELISA plate (Corning, Catalog number: 9018, high binding) with a volume of 100 μL (0.1 μg) or 50 μL (0.05 μg) per well, and incubated at 4° C. overnight. The plate was decanted and washed once; assay diluent was added 200 μL/well. After a one-hour incubation at room temperature, the plate was washed with PBST one time. […] The plate was incubated one hour at room temperature and then washed three times with PBST. Goat anti-human IgG-H+L HRP conjugated at 1:100,000 dilution was added to the plate at 100 μL/well. The plate was then incubated one hour at room temperature followed by washing with PBST four times. The TMB substrate solution was added at 100 μL/well. The color was allowed to develop for 15 minutes, and was stopped with 100 μL/well 2N H₂SO₄. Absorbance at 450 nm and 620 nm was determined by a Tecan F200 Pro reader.
# Graphpad 7.0, “[Agonist] vs. response—Variable slope (four parameters)” was used to plot the binding data and calculate binding EC₅₀ values.
# [5] = biological target: T2, Ly050; assay: ELISA, CD137 protein coated, clone 3712 titrated; full sigmoid, plateau about 1.9
# Protocol: as §3
# [6] = biological target: T5, human CD137 on cells (human, UniProt Q07011 24-255); assay: flow cytometry on CHO-human CD137 cells, PE anti-human IgG-Fc
# T5 construct: whole, on cells; also called CHO-human CD137; CHO cells over-expressing human CD137
# Protocol: as §1, §2
# Target sequence in this assay (Q07011 24-255): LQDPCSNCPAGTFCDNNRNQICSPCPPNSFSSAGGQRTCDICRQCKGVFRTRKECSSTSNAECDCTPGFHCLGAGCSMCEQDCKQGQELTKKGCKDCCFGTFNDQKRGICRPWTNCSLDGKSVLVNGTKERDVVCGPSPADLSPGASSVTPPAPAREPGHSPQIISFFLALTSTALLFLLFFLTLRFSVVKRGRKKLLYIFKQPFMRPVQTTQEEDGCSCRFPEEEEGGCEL
# [7] = biological target: T5, human CD137 on cells; assay: cell-based or functional assay
# T3 sequence (A9YYE7 entry or part of it): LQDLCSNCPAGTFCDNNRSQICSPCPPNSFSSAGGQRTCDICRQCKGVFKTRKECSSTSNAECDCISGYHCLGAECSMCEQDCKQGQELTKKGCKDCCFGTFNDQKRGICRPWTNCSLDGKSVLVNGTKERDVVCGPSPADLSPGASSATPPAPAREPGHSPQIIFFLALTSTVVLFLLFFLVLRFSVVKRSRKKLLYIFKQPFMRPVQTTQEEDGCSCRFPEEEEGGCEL
binder,measurement,setting,value
"Clone 3712-IgG1v (IgG1v/kappa) (antibody, copies: 2 + 2) heavy: QVQLVQSGAEVKKPGASVKVSCKASGYTFAGFEMHWVRQAPGQGLEWMGAIDPKTGGTDYNQKFKDRVTMTRDTSISTAYMELSRLRSDDTAVYYCARDLGYFDVWGQGTLVTVSSASTKGPSVFPLAPSSKSTSGGTAALGCLVKDYFPEPVTVSWNSGALTSGVHTFPAVLQSSGLYSLSSVVTVPSSSLGTQTYICNVNHKPSNTKVDKKVEPKSCDKTHTCPPCPAPELLGPSVFLFPPKPKDTLMISRTPEVTCVVVDVEHEDPEVKFNWYVDGVEVHNAKTKPREEQYNSTYRVVSVLTVLHQDWLNGKEYKCKVSNKALPAPIEKTISKAKGQPREPQVYTLPPSREEMTKNQVSLTCLVKGFYPSDIAVEWESNGQPENNYKTTPPVLDSDGSFFLYSKLTVDKSRWQQGNVFSCSVMHEALHNHYTQKSLSLSPGK light: DIQMTQSPSSLSASVGDRVTITCRASQDIRSNLNWYQQKPGGAVKLLIYYTSRLHSGVPSRFSGSGSGTDYTLTISSLQPEDFATYFCQQSEKLPRTFGGGTKVEIRRTVAAPSVFIFPPSDEQLKSGTASVVCLLNNFYPREAKVQWKVDNALQSGNSQESVTEQDSKDSTYSLSSTLTLSKADYEKHKVYACEVTHQGLSSPVTKSFNRGEC",EC50,[1],29.5 µg/mL
same,EC50 (read off the curve),[2],~0.03 µg/mL
same,EC50,[3],0.0572 µg/mL
same,EC50 (read off the curve),[4],~0.05 µg/mL
same,EC50,[5],0.0722 µg/mL
same,EC50 (read off the curve),[6],~0.05 µg/mL
same,"IFN-γ secretion of human CD8+ T cells co-cultured with CHO-K1-huFcγRIIB cells and OKT3; average EC50, n=12",[7],30.6 ng/mL and ~0.21 nM
same,"IL-8 secretion of CD137 reporter cells (GS-H2-huCD137) co-cultured with CHO-K1-huFcγRIIB cells; average EC50, n=6",[7],44.4 ng/mL and ~0.31 nM
